B1: HDV Ribozyme (parent)
chain: GGCCGGCAUGGUCCCAGCCUCCUCGCUGGCGCCGGCUGGGCAACAUUCCGAGGGGACCGUCCCCUCGGUAAUGGCGAAUGGGACCCA

Variants of B1 are the subject of the data set. Kind of data set: self-cleavage, relative activity (ratio to wild type); higher = more cleavage; co-transcriptional.
As to GGCCGGCAUGGUCCCAGCGUCCUCGCUGGCGCCGGCUGGGCAACAUUCCGAGGGGACCGUCCCCUCGGUAAUGGCGAAGGGGACCCA [C19G U79G], the self-cleavage turned out to be 0.222.

For GGCCGGCAUGGUCCCAGCCACCUCGCUGGCGCCGGCUGGGCAUCAUUCCGAGGGGACCGUCCCCUCGGUAAUGGCGAAUGGGACCCA [U20A A43U], the self-cleavage was 0.0386.

For GGCCGGCAUGGUCCCAGCUUCCUCGCUGGCGCCGGCUGGGGAACAUUCCGAGGGGACCGUCCCCUCGGUAAUGGCGAAUGGGACCCA [C19U C41G], the self-cleavage was 0.116.

With GGCCGGCAUGGUCCCAGCUUCCUCGCUGGCGCCGGCUGGGAAACAUUCCGAGGGGACCGUCCCCUCGGUAAUGGCGAAUGGGACCCA [C19U C41A], the self-cleavage was 0.0804.

On to GGCCGGCAUGGUCCCAGCGUCCUCGCUGGCGCCGGCUGGGCAACAUUCCGAGGGGACCGUCCCCUCGGUAAUGGCCAAUGGGACCCA [C19G G76C], for which the self-cleavage was 0.

Turning to GGCCGGCAUGGUCCCAGCUUCCUCGCUAGCGCCGGCUGGGCAACAUUCCGAGGGGACCGUCCCCUCGGUAAUGGCGAAUGGGACCCA [C19U G28A], the self-cleavage came out at 0.956.

Turning to GGCCGGCAUGGUCCCAGCUUCCUCGCUGGCGCCGGCUGGGCAACAUUCCGAGGGGACCGUCCCCUCGGUAAUGGCGAAUGGGACGCA [C19U C85G], the self-cleavage came to 0.102.

With GGCCGGCAUGGUCCCAGCUUUCUCGCUGGCGCCGGCUGGGCAACAUUCCGAGGGGACCGUCCCCUCGGUAAUGGCGAAUGGGACCCA [C19U C21U], the self-cleavage stood at 0.0378.

Take GGCCGGCAUGGUCCCAGCUUCCUCGCUGGCGCCGGCUGGGCAACAUUCCGAGGGGUCCGUCCCCUCGGUAAUGGCGAAUGGGACCCA [C19U A56U]: the self-cleavage came to 0.0863.

On to GGCCGGCAUGGUCCCAGCUUCCUCGCUGGCCCCGGCUGGGCAACAUUCCGAGGGGACCGUCCCCUCGGUAAUGGCGAAUGGGACCCA [C19U G31C], for which the self-cleavage was 0.0845.

On to GGCCGGCAUGGUCCCAGCUUCCUCGCUGGCUCCGGCUGGGCAACAUUCCGAGGGGACCGUCCCCUCGGUAAUGGCGAAUGGGACCCA [C19U G31U], for which the self-cleavage worked out at 0.115.

GGCCGGCAUGGUCCCAGCUUCCUCGUUGGCGCCGGCUGGGCAACAUUCCGAGGGGACCGUCCCCUCGGUAAUGGCGAAUGGGACCCA [C19U C26U]: the self-cleavage worked out at 0.718.

Regarding GGCCGGCAUGGUCCCAGCUUCCUGGCUGGCGCCGGCUGGGCAACAUUCCGAGGGGACCGUCCCCUCGGUAAUGGCGAAUGGGACCCA [C19U C24G], the self-cleavage came to 0.0475.

Regarding GGCCGGCAUGGUCCCAGCUUCCUCGCUGGCGCCGGCUGGGCAACAUUCCGAGGGGACCGUCCCCUCGGUAAUGGCGAAUGGGAUCCA [C19U C84U], the self-cleavage came to 0.0811.

On to GGCCGGCAUGGUCCCAGCUUCCUCGCUGGCGCCGGCUGGGCAACAUUCCGAGGGGACCGUCCCCUCGGUAAUGGCGAAUGGGAACCA [C19U C84A], for which the self-cleavage stood at 0.0554.

In the case of GGCCGGCAUGGUCCCAGCGUCCUCGCUGGCGCCGGCUGGGCAACAUUCCGAGGGGACCGUCCCCUCGGUAAGGGCGAAUGGGACCCA [C19G U72G], the self-cleavage was determined as 0.

Take GGCCGGCAUGGUCCCAGCGUCCUCGCUGGCGCCGGCUGGGCAACAUUCCGAGGGGACCGUCCCCUCGGUAAAGGCGAAUGGGACCCA [C19G U72A]: the self-cleavage was determined as 0.0563.

Take GGCCGGCAUGGUCCCAGCUUCCUCGCUGGCGCCGGCUGGGCAACAUUCCGAGGGGACCGUCCCCUCGGUAAUGGCGAAUGUGACCCA [C19U G81U]: the self-cleavage came to 0.131.

Take GGCCGGCAUGGUCCCAGCUUCCUCGCUGGCGCCGGCUGGGCAACAUUCCGAGGGGACCCUCCCCUCGGUAAUGGCGAAUGGGACCCA [C19U G59C]: the self-cleavage came to 0.205.

As to GGCCGGCAUGGUCCCAGCUUCCUCGCUGGCGCCGGCUGGGCAACAUUCCGAGGGGACCUUCCCCUCGGUAAUGGCGAAUGGGACCCA [C19U G59U], the self-cleavage was 0.194.

Turning to GGCCGGCAUGGUCCCAGCUUCCUCGCUGGCGCCGGCUGGGCAACGUUCCGAGGGGACCGUCCCCUCGGUAAUGGCGAAUGGGACCCA [C19U A45G], the self-cleavage amounted to 0.111.

Turning to GGCCGGCAUGGUCCCAGCUUCCUCGCAGGCGCCGGCUGGGCAACAUUCCGAGGGGACCGUCCCCUCGGUAAUGGCGAAUGGGACCCA [C19U U27A], the self-cleavage was found to be 0.332.

For the variant GGCCGGCAUGGUCCCAGCUUCCUCGCCGGCGCCGGCUGGGCAACAUUCCGAGGGGACCGUCCCCUCGGUAAUGGCGAAUGGGACCCA [C19U U27C], the self-cleavage turned out to be 0.135.

On to GGCCGGCAUGGUCCCAGCUACCUCGCUGGCGCCGGCUGGGCAACAUUCCGAGGGGACCGUCCCCUCGGUAAUGGCGAAUGGGACCCA [C19U U20A], for which the self-cleavage was determined as 0.149.

On to GGCCGGCAUGGUCCCAGCGUCCUCGCUGGCGCCGGCUGGGCAACAUUCCGAGGGGACCGUCCCCUCGGUAAUGGCGAAUGUGACCCA [C19G G81U], for which the self-cleavage is 0.0997.

Turning to GGCCGGCAUGGUCCCAGCUUCCUCGCUGGCGCCGGCUGGGCAACAUUCCGCGGGGACCGUCCCCUCGGUAAUGGCGAAUGGGACCCA [C19U A51C], the self-cleavage was found to be 0.204.

For GGCCGGCAUGGUCCCAGCUUCCUCGCUGGCGCCGGCUGGGCAACAUUCUGAGGGGACCGUCCCCUCGGUAAUGGCGAAUGGGACCCA [C19U C49U], the self-cleavage stood at 0.131.

Consider GGCCGGCAUGGUCCCAGCUUCCUCGCUGGCGCCGGCUGGGCAACAUUCCGAGGGGACCGUCCCCUCGGUAAUGGCGAAUAGGACCCA [C19U G80A], for which the self-cleavage stood at 0.0573.

Consider GGCCGGCAUGGUCCCAGCUUCCUCGCUGGCGCCGGCUGGGCAACAUGCCGAGGGGACCGUCCCCUCGGUAAUGGCGAAUGGGACCCA [C19U U47G], for which the self-cleavage was 0.0906.

As for GGCCGGCAUGGUCCCAGCUUCCUCGCUGGCGCCGGCUGGGCAACAUUCCGAGGAGACCGUCCCCUCGGUAAUGGCGAAUGGGACCCA [C19U G54A], the self-cleavage stood at 0.179.

Turning to GGCCGGCAUGGUCCCAGCUUCCUCGCUGGCGCCGGCUGGGCAACAUUCCGAGGUGACCGUCCCCUCGGUAAUGGCGAAUGGGACCCA [C19U G54U], the self-cleavage was determined as 0.174.

As for GGCCGGCAUGGUCCCAGCGUCCUCGCUGGCGCCGGCUGGGCAACAUUCCGAGGGGACCGUCCCCUCGGUAAUGGCGAAUAGGACCCA [C19G G80A], the self-cleavage amounted to 0.131.

Source of the values: the RNAGym collection of RNA variant scans (doi:10.7554/elife.80360).
